Consider 13 molecules from US20180002381A1 (HONG KONG POLYTECHNIC UNIVERSITY, published 2018).

First the molecules themselves.
B1: Coiled coil domain of UVRAG (228-276) (other)
chain: TSNELKKESESLRLKILVLRNELERQKKALGREVAFLHKQQMALQDKG
notes: They have S at position 238 where the full-length entries have C; also called UVRAG coiled coil domain; UVRAG coiled coil
B2: Monomeric form of Beclin1 coiled coil domain with L182A mutation (other)
chain: DSEQLQREAKELALEEERLIQELEDVEKNRKVVAENLEKVQAEAERLDQEEAQYQREYSEFKRQQLELDDELKSVENQMRYAQMQLDKLKKTN
notes: The entry already carries L182A
B3: UVRAG (228-298) (other)
chain: TSNELKKESESLRLKILVLRNELERQKKALGREVAFLHKQQMALQDKGSAFSTEHGKLQLQKDSLSELRKE
B4: Beclin 1 coiled coil 2 (CC2) (other)
chain: EERLIQELEDVEKNRKVVAENLEKVQAEAERLDQEEAQYQREYSEFKRQ
notes: 7 heptad repeats of the Beclin1 coiled coil domain
B5: Beclin 1 coiled coil 4 (CC4) (other)
chain: AERLDQEEAQYQREYSEFKRQQLELDDELKSVENQMRYAQMQADKLKKTN
notes: as for B4
B6: Beclin 1 coiled coil 3 (CC3) (other)
chain: RKVVAENLEKVQAEAERLDQEEAQYQREYSEFKRQQLELDDELKSVENQ
notes: as for B4
B7: UVRAG 2E (L246E/L250E), coiled coil domain as used in ITC (other)
chain: B3 chain with S11C, L19E, L23E
B8: UVRAG 5E (L232E/L239E/L246E/L250E/L264E), coiled coil domain as used in ITC (other)
chain: B3 chain with L5E, S11C, L12E, L19E, L23E, L37E
B9: UVRAG 6E (L232E/L239E/L246E/L250E/L264E/L271E), coiled coil domain as used in ITC (other)
chain: B3 chain with L5E, S11C, L12E, L19E, L23E, L37E, L44E
B10: FLAG-tagged full length Mus musculus UVRAG wild type (other, not shown: small tags and cut ends)
chain: MSSCASLGGPVPLPPPGPSAALTSGAPARALHVELPSQQRRLRHLRNIAARNIVNRNGHQLLDTYFTLHLCDNEKIFKEFYRSEVIKNSLNPTWRSLDFGIMPDRLDTSVSCFVVKIWGGKEEAFQLLIEWKVYLDGLKYLGQQIHARNQNEIIFGLNDGYYGAPCEHKGHPNAQKNLLQVDQNCVRNSYDVFSLLRLHRAQCAIKQTQVTVQRLGKEIEEKLRLTSTSNELKKESECLRLKILVLRNELERQKKALGREVAFLHKQQMALQDKGSAFSTEHGKLQLQKDSLSELRKECTAKRELFLKTNAQLTIRCRQLLSELSYIYPIDLNEHKDYFVCGVKLPNSEDFQAKEDGSIAVALGYTAHLVSMISFFLQVPLRYPIIHKGSRSTIKDNINDKLTEKEREFPLYPKGGEKLQFDYGVYLLNKNIAQLRYQHGLGTPDLRQTLPNLKNFMEHGLMVRCDRHHISNAIPVPKRQSSTFGGADGGFSAGIPSPDKVHRKRASSENERLQYKTPPPSYNSALTQPGVAMPTSGDSERKVAPLSSSLDTSLDFSKENKKAGVDLGSSVSGDHGNSDSGQEQGEALPGHLAAVNGTALPSEQAGPAGTLLPGSCHPAPSAELCCAVEQAEEIIGLEATGFTSGDQLEALSCIPVDSAVAVECDEQVLGEFEEFSRRIYALSENVSSFRRPRRSSDK
B11: FLAG-tagged full length Mus musculus UVRAG 1E (L246E) (other, not shown: small tags and cut ends)
chain: B10 chain with L246E
B12: FLAG-tagged full length Mus musculus UVRAG 2E (L246E/L250E) (other, not shown: small tags and cut ends)
chain: B10 chain with L246E, L250E

Residue numbers refer to the chain shown, from its start. Names and notes keep the numbering of the source. No end group written: not given here.

For experiment [1], the target named is T1, Beclin1 coiled coil domain (wild type) (rat, UniProt Q91XJ1 174-266).
T1 construct: residues 175-266; it pairs 1:1 with UVRAG; also called CC; entire Beclin1 coiled coil domain
Briefly: ITC. In general terms: Isothermal titration calorimetry measures the heat released or taken up as one component is titrated into another.

Experiment [2] concerns the target B3. In words: isothermal titration calorimetry, monomeric Beclin1 coiled coil domain (L182A) and UVRAG (228-298).
Experiment [3] deals with T1, Beclin1 coiled coil domain (wild type). In words: isothermal titration calorimetry, wild type Beclin1 coiled coil domain and UVRAG (228-298).
Target sequence in this assay (Q91XJ1 174-266 limits assumed): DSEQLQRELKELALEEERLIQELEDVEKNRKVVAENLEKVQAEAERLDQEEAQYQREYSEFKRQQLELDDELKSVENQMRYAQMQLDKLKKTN
Experiment [4] concerns the target B2. In words: ITC.
Experiment [5] has as its target B1. In words: isothermal titration calorimetry, Beclin 1 construct against UVRAG coiled coil domain.
Experiment [6] deals with T1, Beclin1 coiled coil domain (wild type). In words: ITC. This is another data set of the same source.
In experiment [7] the target is endogenous Beclin1 (UniProt Q14457 1-450). Briefly: cell-based or functional assay.
Sequence of endogenous Beclin1 (Q14457 whole entry): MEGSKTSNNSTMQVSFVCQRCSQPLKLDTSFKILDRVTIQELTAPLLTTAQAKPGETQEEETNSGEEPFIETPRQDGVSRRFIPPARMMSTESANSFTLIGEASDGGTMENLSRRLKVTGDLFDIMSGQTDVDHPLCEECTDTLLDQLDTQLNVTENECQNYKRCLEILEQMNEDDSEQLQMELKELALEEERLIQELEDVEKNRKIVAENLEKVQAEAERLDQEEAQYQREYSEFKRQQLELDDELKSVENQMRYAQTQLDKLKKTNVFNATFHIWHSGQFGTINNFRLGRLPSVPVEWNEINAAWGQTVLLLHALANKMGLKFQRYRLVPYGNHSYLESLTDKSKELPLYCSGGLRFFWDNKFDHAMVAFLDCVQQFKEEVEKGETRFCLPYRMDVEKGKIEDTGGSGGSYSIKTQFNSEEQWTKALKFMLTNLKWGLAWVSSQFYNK

One may read the Kd as the constant that tells how readily two partners part at equilibrium. On to B1, for which, in experiment [1], the Kd is ~0.24 µM. Consider B2, for which, in experiment [2], the Kd was ~0.07 µM. As to B3, the dissociation constant Kd in experiment [3] is ~0.24 µM. Further, the binding result in experiment [4] is recorded as “binds”. B4 had a Kd in experiment [5] of 139 µM. Turning to DSEQAQRELKELALEEERLIQELEDVEKNRKVVAENLEKVQAEAERLDQE (other, not fully specified) [Beclin 1 coiled coil 1 (CC1), residues 174-223], the Kd in experiment [5] is 8.9 µM. Consider B5, for which the affinity in experiment [5], expressed as Kd, was 157 µM. In experiment [5], B6 returned a Kd of 671 µM.

Regarding B7, in experiment [6], the binding result is given as “no binding”.

For the molecule B8, the binding result in experiment [6] is given as “no binding”. Regarding B9, in experiment [6], the binding result was “no binding”. Consider B10, for which, in experiment [7], the “EGFR remaining after 5 hours in A549 cells” value (from here on “EGFR remaining after 5 hours”) is < 10% and the “half-life of EGFR in A549 cells” value is ~2 h. Consider B11, for which, in experiment [7], the “EGFR remaining after 5 hours” value was < 10% and the “half-life of EGFR in A549 cells” value is ~2 h.

For B12, the “EGFR remaining after 5 hours” value in experiment [7] was ~5%.
